Experimental data: US20190233522A1, “NEW DOSAGE REGIMENS FOR ANTIBODY DRUG CONJUGATES BASED ON ANTI-AXL ANTIBODIES” (GENMAB A/S, priority 2016, published 2019)

Columns and labels:
LCLC-103H cells = test: Cytotoxicity assay (CellTiter-Glo) in LCLC-103H cells; type: cell-based, human; conditions: 5 days incubation
Procedure: (§1) LCLC-103H cells (human large cell lung cancer) and A431 cells (DMSZ, Braunschweig, Germany) were cultured in RPMI 1640 with L-Glutamine (Cambrex; cat.no. BE12-115F) supplemented with 10% (vol/vol) heat inactivated Cosmic Calf Serum (Perbio; cat.no. SH30087.03), 2 mM L-glutamine (Cambrex; cat.no. US17-905C), 50 IU/mL penicillin, and 50 µg/mL streptomycin (Cambrex; cat.no. DE17-603E). MDA-MB231 cells were cultured in DMEM with high glucose and HEPES (Lonza #BE12-709F), Donor Bovine Serum with Iron (Life Technologies #10371-029), 2 mM L-glutamine (Lonza #BE17 -605E), 1 mM Sodium Pyruvate (Lonza #BE13-115E), and MEM Non-Essential Amino Acids Solution (Life Technologies #11140). The cell lines were maintained at 37° C. in a 5% (vol/vol) CO2 humidified incubator. LCLC-103H, A431 and MDA-MB231 cells were cultured to near confluency, after which cells were trypsinized, resuspended in culture medium and passed through a cell strainer (BD Falcon, cat.no. 352340) to obtain a single cell suspension. […]
(§2) Subsequently, 180 μL per well was transferred to white 96-well Optiplate™ plates (PerkinElmer, Waltham, Mass.; cat.no. 6005299), which were incubated for 30 min at room temperature. Finally, luminescence was measured on an EnVision multiplate reader (Envision, Perkin Elmer).

A431 cells = test: Cytotoxicity assay (CellTiter-Glo) in A431 cells; type: cell-based; conditions: A431 (n = 3), 5 days incubation
Procedure: as §1, §2

MDA-MB231 cells = test: Cytotoxicity assay (CellTiter-Glo) in MDA-MB231 cells; type: cell-based; conditions: MDA-MB231 (n = 2), 5 days incubation
Procedure: as §1, §2

[1] = system: LCLC-103H xenograft tumors; test: Therapeutic treatment of SC LCLC-103H tumor xenografts (Example 3); type: in vivo, SCID mice
Procedure: The in vivo efficacy of MMAE-conjugated anti-AXL antibodies was determined in established subcutaneous (SC) LCLC-103H xenograft tumors in SCID mice. 5×10^6 LCLC-103H (large cell lung carcinoma) tumor cells (obtained from Leibniz-Institut DSMZ-Deutsche Sammlung von Mikroorganismen and Zellkulturen GmbH (DSMZ)) in 200 μL PBS were injected subcutaneously in the right flank of female SCID mice. Starting 14-21 days after tumor cell inoculation, when the average tumor size was >100-200 mm^3 and distinct tumor growth was observed, a single injection with 1 mg/kg (20 μg/mouse) IgG1-AXL-vcMMAE antibodies or control (unconjugated IgG1-b12) was given intraperitoneally (100 μL/mouse). Tumor volume was determined at least two times per week. Tumor volumes (mm^3) were calculated from caliper (PLEXX) measurements as: 0.52×(length)×(width)^2.

PAXF1657 tumors = test: PAXF1657 pancreas cancer PDX model; type: in vivo, NMRI nu/nu mice
Procedure: Human pancreas tumor tissue was subcutaneously implanted in the left flank of 5-7 weeks old female NMRI nu/nu mice. […] At day of randomization (day 0), the 3 ADCs were dosed intravenously (i.v.) at either 4 mg/kg or 2 mg/kg, and the control group received a single dose of IgG1-b12 (4 mg/kg). Tumor volumes (mm^3) were monitored twice weekly and were calculated from caliper (PLEXX) measurements as: 0.52×(length)×(width)^2.

A431 tumors = test: A431 xenograft model (high Gas6); type: in vivo; conditions: 3 mg/kg i.p., SCID mice
Procedure: (§3) Tumor induction was performed by subcutaneous injection of 5×10^6 A431 or LCLC-103H tumor cells (both obtained from Leibniz-Institut—Deutsche Sammlung von Mikroorganismen and Zellkulturen GmbH (DSMZ)) in 200 μL PBS in the right flank of female SCID mice. Treatment was started 14-21 days after tumor cell inoculation, when the average tumor size was >100-200 mm^3 and distinct tumor growth was observed. Mice received a single injection or a total of 4 biweekly intraperitoneal injections with IgG1-AXL-vcMMAE ADCs or control antibody (unconjugated IgG1-b12), as indicated. Tumor volume was determined at least two times per week. Tumor volumes (mm^3) were calculated from caliper (PLEXX) measurements as: 0.52×(length)×(width)^2.

LCLC-103H tumors = test: LCLC-103H xenograft model (low Gas6, Example 5); type: in vivo; conditions: 3 mg/kg i.p., SCID mice
Procedure: as §3

AXL = AXL (Homo sapiens, UniProt P30530); test: Competition with Gas6 for binding to AXL
[2] = Pre-clinical PK studies in cynomolgus monkey; type: in vivo
Excerpt: Data from 5 in-vivo pre-clinical studies, shown in the Table below, were provided, containing measurements of the plasma ADC level, plasma IgG level, and plasma MMAE level (only measured in study 5).
All studies appeared to show a significant drop in plasma concentrations of ADC/IgG after the 2nd dose when compared to the first dose, which corresponded with an ADA response. As this is a fully human antibody, ADA response are only very rarely expected to occur in humans. Therefore, only data after the first dose were included in the data preparation and subsequently modelled.

B1: IgG1-AXL-148-vcMMAE: anti-AXL antibody 148 (VH SEQ ID No 5, VL SEQ ID No 6), Ig2 binder, conjugated to vcMMAE (conjugate)
VH: EVQLLESGGGLVQPGGSLRLSCAASGFTFSSYAMTWVRQAPGKGLEWVSAISISGGSTFYADSVKGRFTISRDNSKNTLYLQMNSLRAEDTAVYYCRGYSGYVYDAFDFWGQGTMVTVSS
VL: DIQMTQSPSSLSASVGDRVTITCRASQGISNWLAWYQQKPEKAPKSLIYAASSLQSGVPSRFSGSGSGTDFTLTISSLQPEDFATYYCQQYNSYPLTFGGGTKVEIK
modifications: vc-MMAE conjugate; homo sapiens
LCLC-103H cells
  EC50: 0.012 µg/mL
A431 cells
  EC50 Mean: 0.070 µg/mL
MDA-MB231 cells
  EC50 Mean: 0.012 µg/mL
[1]; 1 mg/kg single i.p.
  complete tumor reduction: in some mice within these groups to complete tumor reduction
[1]; day 30, One Way ANOVA (Dunnett's), 1 mg/kg single i.p.
  tumor volume versus control IgG1-b12: highly significant difference
[1]; single i.p. injection 1 mg/kg, SCID mice
  anti-tumor activity in established SC LCLC-103H tumors: induced tumor regression
PAXF1657 tumors; 2 mg/kg i.v., day 0
  growth of PAXF1657 tumors compared to the control group: significantly reduced the growth
PAXF1657 tumors; 4 mg/kg i.v., day 0
  anti-tumor activity on PAXF1657 tumors: induced tumor regression
PAXF1657 tumors; day 14, 2 mg/kg or 4 mg/kg, p<0.001 Tukey's multiple comparison test
  average tumor size versus isotype control IgG1-b12: significantly smaller
PAXF1657 tumors; dose not given
  anti-tumor activity in the PAXF1657 model: induced dose-dependent antitumor activity
A431 tumors
  anti-tumor activity on A431 tumors: induced growth inhibition
LCLC-103H tumors
  anti-tumor activity in the LCLC-103H xenograft model: induced tumor regression
AXL
  competition with Gas6 for binding to AXL: lack of competition
[2]
  pharmacokinetic properties, unconjugated antibody (study 3) versus ADC (study 2): similar
